Key:
HSV-1 (KOS) gL86 [1] = assay: HSV-1 entry into CHO-K1 cells expressing gD receptors, virus pre-incubated with CN (Example 2); format: cell-based, herpes simplex virus type-1; details: virus 30 pfu/cell pre-incubated 90 min, read after 6 hr
Procedure: (§1) Viral Entry Assay. Viral entry assays were based on quantitation of β-galactosidase expressed from the viral genome in which β-galactosidase expression is inducible by HSV infection. Cells were transiently transfected in 6-well tissue culture dishes, using Lipofectamine 2000 (In vitrogen Corp) with plasmids expressing HSV-1 entry receptors (necitn-1, HVEM and 3-OST-3 expression plasmids) at 1.5 μg per well in 1 ml. At 24 hr post-transfection, cells were re-plated in 96-well tissue culture dishes (2×10^4 cells per well) at least 16 hr prior to infection. Cells were washed and exposed to serially dilute pre-incubated virus with […] or with 1×PBS at two fold dilutions for 2 hr at room temperature. In a parallel experiment the cells were also pre-incubated with NBE for 2 hr at room temperature before infection with virus. Later the cells were washed with 1×PBS and allowed 6 hr at 37° C. before solubilization in 100 μl of PBS containing 0.5% NP-40 and the -galactosidase substrate, o-nitro-phenyl-D-galactopyranoside (ONPG; ImmunoPure, PIERCE, Rockford, Ill., 3 mg/ml). The enzymatic activity was monitored at 410 nm by spectrophotometry at several time points after the addition of ONPG in order to define the interval over which the generation of the product was linear with time. Microscopy was performed using 20×objective of the microscope (Nikon). The slide book version 3.0 was used for images. All experiments were repeated a minimum of three times.
CN blocks herpes simplex virus type-1 (HSV-1) entry into CHO-K1 cells expressing gD receptors. […] After 6 hr at 37° C., the cells were washed, permeabilized with 100 μl of PBS containing 0.5% NP-40 and incubated with ONPG substrate (3.0 mg/ml) for quantitation of β-galactosidase activity expressed from the input viral genome. The enzymatic activity was measured at an optical density of 410 nm (OD 410).

[2] = test system: β-galactosidase-expressing recombinant Adenovirus; assay: Adenovirus infection of HeLa cells (Example 7); format: cell-based; details: pre-incubated 90 min
Procedure: HeLa cells were infected with a β-galactosidase-expressing recombinant Adenovirus were pre-incubated with CN at (1) the dilution indicated in FIG. 11, panel A (stock concentration 22 nM) or (2) the concentrations indicated in FIG. 11, panel B, or mock treated with 1 X phosphate saline buffer for 90 min at room temperature. After 12 hr, the cells were washed, permeabilized and incubated with ONPG substrate (3.0 mg/ml) for quantitation of β-galactosidase activity expressed from the input viral genome. Positive (Pos) infected with virus alone; Negative (Neg) uninfected control. The enzymatic activity was measured at an optical density of 410 nm (OD 410).

HSV-1 (KOS) gL86 [3] = assay: HSV-1 entry into gD receptor expressing CHO-K1 cells, cells pre-incubated with CN (Example 8); format: cell-based, herpes simplex virus type-1; details: for HSV-1 viral entry (β-galactosidase activity, OD 410): 25 pfu/cell, 6 h
Procedure: In this experiment, Chinese hamster ovary (CHO-K1) cells expressing glycoprotein D (gD) receptors: (A) 3-OST-3, (B) herpesvirus entry mediator and (C) nectin-1 were pre-incubated with contortrostatin (CN) at indicated concentrations or mock-treated (positive control [+]) with phosphate saline buffer for 90 min at room temperature. This treatment was followed by infection with β-galactosidase-expressing recombinant virus herpes simplex virus type-1 (HSV-1; KOS) gL86 (25 pfu/cell). Uninfected cells were kept as negative control (−). After 6 h, the cells were washed, permeabilized and incubated with o-nitro-phenyl-β-o-galactopyranoside (ONPG) substrated (3.0 mg/ml) for quantitation of β-galactosidase activity expressed from the input viral genome. The enzymatic activity was measured at an optical density of 410 nm (OD 410). Error bars represent SD. a=significant difference from controls and/or treatments (P<0.05, t-test).
as §1
To determine the effect of CN on HSV-1 entry, we first tested the ability of HSV-1 in the presence and absence of CN to infect CHO-KI cells expressing gD receptors. HSV-1 entry into cells was determined by using β-galactosidase expressing HSV-1 reporter virus (gL86).

HSV-1 (KOS) gL86 [4] = assay: HSV-1 entry into natural target cells (HeLa, human corneal fibroblasts), cells pre-incubated with CN (Example 9); format: cell-based, herpes simplex virus type-1; details: for HSV-1 entry (β-galactosidase activity, OD 410): 25 pfu/cell, 6 h
Procedure: In this experiment (A) HeLa and (B) primary cultures of human corneal fibroblasts (CF) were used. They were either pre-treated with contortrostatin (CN) at indicated concentrations or mock-treated (positive control [+]) with phosphate saline buffer for 90 min at room temperature. β-galactosidase-expressing recombinant virus herpes simplex virus type-1 (HSV-1; KOS) gL86 (25 pfu/cell) was used to infect cells. Uninfected cells were kept as negative control (−). After 6 h, the cells were washed, permeabilized and incubated with […] expressed from the input viral genome. The enzymatic activity was measured at an optical density of 410 nm (OD 410). Error bars represent SD. a=significant difference from controls and/or treatments (P<0.05, t-test).
To confirm blocking activity of CN on HSY-I entry, HeLa and primary cultures of human CF were used. It has been shown that HeLa and human CF naturally express gD receptors. […] This raises the possibility that the effect of CN can be more pronounced in the natural target cells and that it may not depend on gD receptors. […] The inhibitory effect is likely dependent on the type of integrins expressed on the surface of cells.

B1: contortrostatin (protein)
chain: DAPANPCCDAATCKLTTGSQCADGLCCDQCKFMKEGTVCRRARGDDLDDYCNGISAGCPRNPFHA
B1 was tested, and the “HSV-1 viral entry (β-galactosidase activity, OD 410)” value (shortened to “HSV-1 viral entry”) (HSV-1 (KOS) gL86 [1]; CHO-K1 cells expressing 3-OST-3) was “blocked viral entry”, the “HSV-1 viral entry” value (HSV-1 (KOS) gL86 [1]; CHO-K1 cells expressing HVEM) was “blocked viral entry” and the “HSV-1 viral entry” value (HSV-1 (KOS) gL86 [1]; CHO-K1 cells expressing nectin-1) was “blocked viral entry”. For the same molecule, the “Adenovirus infection of HeLa cells (β-galactosidase activity, OD 410)” value ([2]; 12 hr) was “blocks infection”, the IC50 ([2]; β-galactosidase read after 12 hr) was 2.75 nM and the “HSV-1 viral entry” value (HSV-1 (KOS) gL86 [3]; CHO-K1 cells expressing 3-OST-3 pre-incubated 90 min) was “significantly blocked viral emry in a dose-dependent manner”. The “HSV-1 viral entry” value (HSV-1 (KOS) gL86 [3]; CHO-K1 cells expressing HVEM pre-incubated 90 min) was “significantly blocked viral emry in a dose-dependent manner”, the “HSV-1 viral entry” value (HSV-1 (KOS) gL86 [3]; CHO-K1 cells expressing nectin-1 pre-incubated 90 min) was “significantly blocked viral emry in a dose-dependent manner” and the “concentrations at which entry blocking activity was pronounced” value (HSV-1 (KOS) gL86 [3]; gD-receptor expressing CHO-K1 cells) was “micromolar concentrations”. The “HSV-1 entry (β-galactosidase activity, OD 410)” value (HSV-1 (KOS) gL86 [4]; HeLa cells pre-incubated 90 min) was “significant blocking of HSV-1 entry”, the “concentration at which strong inhibition of entry was observed” value (HSV-1 (KOS) gL86 [4]; natural target cells (HeLa and CF)) was < 1 µM and the “HSV-1 entry (β-galactosidase activity, OD 410)” value (HSV-1 (KOS) gL86 [4]; primary human corneal fibroblasts (CF) pre-incubated 90 min) was “significant blocking of HSV-1 entry”.
